What was measured:
[1] = target: CD44v6 on cultured cancer cells (BHT-101, ACT-1, A431) (human) (UniProt P16070); assay: LigandTracer, 177Lu-antibody on A431 cells
Human v6-peptide (human) [2] = target: T1, Human v6-peptide (human); assay: SPR SCK, biotin-peptide on SA chip, antibody injected
T1 sequence (peptide, N-terminal biotin): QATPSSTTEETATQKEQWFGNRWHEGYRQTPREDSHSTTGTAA

[3] = target: Human CD44v6 iso4-Fc (human) (UniProt P16070); assay: SPR SCK, antibody captured via anti-kappa, CD44v6-Fc injected
Sequence of Human CD44v6 iso4-Fc (human) (P16070 other isoform, or with tags, fused parts or gaps limits assumed): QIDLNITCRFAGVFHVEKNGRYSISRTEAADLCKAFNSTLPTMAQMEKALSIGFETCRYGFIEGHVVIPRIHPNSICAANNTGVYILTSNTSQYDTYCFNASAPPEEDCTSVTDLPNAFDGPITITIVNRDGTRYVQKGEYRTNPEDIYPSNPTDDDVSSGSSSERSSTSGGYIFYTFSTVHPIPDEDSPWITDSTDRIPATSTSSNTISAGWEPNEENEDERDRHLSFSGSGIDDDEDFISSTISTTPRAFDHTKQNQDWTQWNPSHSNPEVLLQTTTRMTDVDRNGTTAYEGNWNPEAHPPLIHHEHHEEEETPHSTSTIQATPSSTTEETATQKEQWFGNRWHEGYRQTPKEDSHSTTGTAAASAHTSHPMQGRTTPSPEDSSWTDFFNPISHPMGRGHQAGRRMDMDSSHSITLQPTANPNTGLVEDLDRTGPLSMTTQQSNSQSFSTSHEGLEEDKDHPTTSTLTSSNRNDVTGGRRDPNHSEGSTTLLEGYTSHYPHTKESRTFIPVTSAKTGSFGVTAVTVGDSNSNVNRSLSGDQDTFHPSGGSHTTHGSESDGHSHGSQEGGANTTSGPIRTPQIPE

Human v6-peptide (human) [4] = target: T1, Human v6-peptide (human); assay: SPR SCK, biotin-peptide on SA chip, antibody injected; apparent KD
[5] = target: Human CD44v6 iso4-Fc (human) (UniProt P16070); assay: SPR SCK, antibody captured via anti-kappa, CD44v6-Fc injected; apparent KD
FcyR1 = assay: SPR
Sequence of FcyR1 (P12314 16-292): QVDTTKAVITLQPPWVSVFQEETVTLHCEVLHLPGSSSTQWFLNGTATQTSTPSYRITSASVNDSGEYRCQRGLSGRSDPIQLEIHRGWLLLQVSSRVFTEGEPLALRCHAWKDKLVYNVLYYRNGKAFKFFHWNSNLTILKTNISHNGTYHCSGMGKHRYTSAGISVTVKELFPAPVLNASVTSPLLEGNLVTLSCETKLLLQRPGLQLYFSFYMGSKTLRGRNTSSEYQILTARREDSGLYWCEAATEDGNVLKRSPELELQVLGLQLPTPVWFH

| Substance | Kd [1] [pM] | koff (Human v6-peptide (human) [2]) [s⁻¹] | kon (Human v6-peptide (human) [2]) [M⁻¹ s⁻¹] | koff [3] [s⁻¹] | kon [3] [M⁻¹ s⁻¹] | Kd (Human v6-peptide (human) [4]) [pM] | Kd [5] [pM] | Kd (FcyR1) [pM] |
| --- | --- | --- | --- | --- | --- | --- | --- | --- |
| BIWA-4 IgG4 S228P (antibody) | 300 | 0.00017 | 190000 | 0.00031 | 6500 | 880 | 48000 |  |
| Herceptin (antibody) |  |  |  |  |  |  |  | 180 |

— patent US20250340662A1
